According to PMC8699727:

Biological target: Microtubules polymerized from purified porcine brain tubulin (porcine) (UniProt P02550)
Experiment: co-sedimentation

In the case of “GST-TAOK2-C (1,187–1,235) (from UniProt Q9UL54 1187-1235) (domain or fragment)”, the Kd is reported as 670 nM.
